Test results taken from the supplement of paper PMC11865577.

Each sequence was assayed on TO-3-N3 (biotin conjugate) (assay: pull-down binding Z-score (relative to library population); higher = stronger binding). Details: RNA library: Library-2.
How it was run: (§1)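 Streptavidin beads bearing 100 pmol of a biotin-conjugated small molecule were incubated for 60 min at 25 °C with 1 μg of heat-folded, Cy5- or Cy3-end-labelled RNA library in phosphate/NaCl/KCl buffer. Hot SDS eluted the RNA that stayed bound after three washes, and this RNA was hybridised for 20 h at 55.5 °C to a DNA barcode microarray. Binding was expressed as a Z-score against the library mean and standard deviation, after subtraction of a beads-only signal and trimmed averaging of barcoded replicate probes.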

In order of falling “pull-down binding Z-score” value:
1. CCCGAGCUGGGCAGCAUGAAGGGCCUCGGG [hsa-mir-486-2]  1.74
2. CCCUCAUAUGGCAGUUGGCGAGGGCCCAGUGAG [hsa-mir-6769a]  0.974
3. CCCUGGGGAGCUGCUGCAGGCAGCAGGUGGGCGGGACGCCAGCAGGCUGUCUAGCUGUUCCCAUGAUGG [hsa-mir-6843]  0.919
4. CCGACUCUGAGUAUGAUAGAAGUC [hsa-mir-148a]  0.905
5. CCGACUCGGGCUCUGGAGCAGUC [hsa-mir-152]  0.836
6. CCCGAGGCCCUUCAUGCUGCCCAGCUCGGG [hsa-mir-486-1]  0.473
7. CCGCCUUUGUGCUGUCCUUGGAGGGAGG [hsa-mir-1910]  0.209
8. CCGCCCUCGUGUCUGUGGCGGUGG [hsa-mir-663a]  0.171
9. CCCGGAUACCUCAGAAAUUCGG [hsa-mir-760]  -0.07
10. CCCGGCCGGCAGCCCCCGGCCUUAAAGCGCGGG [hsa-mir-4741]  -0.112
11. CCCCGCGCGCGGACAGACACACGGACAAGUCCCGCCAGGGG [hsa-mir-4492]  -0.131
12. CCCUGGUCAGACUCUCCGGGG [hsa-mir-4675]  -0.139
13. CCCUGCACUCAGUUUGCACAGGG [hsa-mir-4511]  -0.159
14. CCCGUAGGACACCGAGGCUUAUGAAUAGGA [hsa-mir-6081]  -0.16
15. CCCUAGGACUUACUUGUGCAGGG [hsa-mir-4253]  -0.256
16. CCCUUGUCUUCCCAGAG [hsa-mir-4739]  -0.28
17. CCCCCAAUUAAAGUAGAUUGGGGG [hsa-mir-3153]  -0.415
18. CCCUGCCCAGUGCAGGAG [hsa-mir-6069]  -0.42
19. CCGAGUGAUCUCGGU [hsa-mir-8071-1_8071-2]  -0.581

The sequences below were run on TO-N3-2 (biotin conjugate) in the same assay as above. Details: RNA library: Library-2.
How it was run: as §1

In order of rising “pull-down binding Z-score” value:
1. CCAAAUCCUUUUCUGAUUUGG [hsa-mir-4520-2]  -1.69
2. CCCCCAAUUAAAGUAGAUUGGGGG [hsa-mir-3153]  -1.29
3. CCCACCCUGAGUUUUGGUGGG [hsa-mir-6508]  -1.22
4. CCAUUAUUUUUAAUAAUUAUAAUAAUGG [hsa-mir-548s]  -1.2
5. CCAAAGAAACUUUUUUGG [hsa-mir-6079]  -1.1
6. CCAUACAAUAUUUGG [hsa-mir-1302-1]  -1.09
7. CCCUGCCCAGUGCAGGAG [hsa-mir-6069]  -0.914
8. CAUUUCCUUCAUGAUUAGGAAUACUACUUUGAAAUG [hsa-mir-4712]  -0.896
9. CCAAAUCAGAAAAGGAUUUGG [hsa-mir-4520-1]  -0.892
10. CAUUUGUGGCAUGGACCAUUUGUG [hsa-mir-4504]  -0.813
11. CCCACCAUGUACCAGUGGG [hsa-mir-4422]  -0.708
12. CCAUGCAACAUUUGG [hsa-mir-1302-4]  -0.696
13. CCCUAGGACUUACUUGUGCAGGG [hsa-mir-4253]  -0.69
14. CCCAUAUAAUAUUAGGGG [hsa-mir-4483]  -0.667
15. CCAAGCUUAGUUUGG [hsa-mir-1302-11_1302-10_1302-3_1302-2_1302-9]  -0.61
16. CCCUGGUCAGACUCUCCGGGG [hsa-mir-4675]  -0.561
17. CCCACCUCCAGCAUUGGG [hsa-mir-1267]  -0.466
18. CCACUACCGGUGA [hsa-mir-4658]  -0.288
19. CCCAUAUGAACAUACAAUGCUAUGGA [hsa-mir-1-2]  -0.206
20. CCAUUAUUGCUACUGUUCAGCAGGUGCUGCUGGUGGUGAUGG [hsa-mir-1260b]  -0.182
21. CCCUUGUCUUCCCAGAG [hsa-mir-4739]  -0.0951
22. CCGAGUGAUCUCGGU [hsa-mir-8071-1_8071-2]  -0.0845
23. CCAUGUAAUCUUUGG [hsa-mir-1302-5]  -0.0743
24. CCCAUUUAAAAUAUGGAA [hsa-mir-548ai]  -0.0504
25. CCAUAAGCUGUCUAAAACUUCG [hsa-mir-4513]  -0.0485
26. CCAAAUUUCAUGCG [hsa-mir-4454]  -0.0452
27. CCCACUUCCUGGA [hsa-mir-4260]  -0.0316
28. CAUUGUAAUAGUUCAUAUGGGCACUG [hsa-mir-3660]  0.0148
29. CAUUUCAGCGUAUAUAUGUAUAUGUGGCUGUG [hsa-mir-19b-2]  0.0211
30. CCCUGCACUCAGUUUGCACAGGG [hsa-mir-4511]  0.0492
31. CCAAGGCUCUGGGGUCUCACCCUUGG [hsa-mir-6842]  0.0499
32. CCCAUAAGGGUCGAAUGGG [hsa-mir-4713]  0.0587
33. CCAGUGGUUUUCCUUGACUGUG [hsa-mir-298]  0.0607
34. CCCAUAUGGAUUACUUUGCUAUGGA [hsa-mir-206]  0.0791
35. CCAAUGGUAUCCAGUGAUUCGUUGA [hsa-mir-4709]  0.186
36. CCCGGAUACCUCAGAAAUUCGG [hsa-mir-760]  0.267
37. CCAUGUGGUUGCGAGGUAUGAGUAAAACAUGG [hsa-mir-218-1]  0.275
38. CCCAUAUGGACCUGCUAAGCUAUGGA [hsa-mir-1-1]  0.361
39. CCCAGAGAAAGCCUGAACGUUGGG [hsa-mir-585]  0.386
40. CCAUGCUGUUUAAGCCUAGCAUAG [hsa-mir-4423]  0.476
41. CCAAGGUUGUGCUUUUAGGAAAUGUUGGCUGUCCUGCGG [hsa-mir-5739]  0.49
42. CCAUGGUGUGCUCUGAUCCCCCUGUGG [hsa-mir-6848]  0.49
43. CCAGGCCCCACGGAGAACCAGGGCACCUGG [hsa-mir-8058]  0.492
44. CCGCCUUUGUGCUGUCCUUGGAGGGAGG [hsa-mir-1910]  0.495
45. CCCACGUCGCAUGCGCCCCGGGAAAGCGUGGG [hsa-mir-3180-1_3180-3_3180-2]  0.515
46. CCCACGGCCCUUGUCAGUGUG [hsa-mir-3190]  0.517
47. CCAGGUUCCAUGUGAUGCUGAA [hsa-mir-6806]  0.575
48. CCAUGUGAGUGAAGCCUGAUCAUCAUGUG [hsa-mir-8070]  0.588
49. CCAGGCCACAUAAUGAGCCAAA [hsa-mir-6771]  0.607
50. CCCGUAGGACACCGAGGCUUAUGAAUAGGA [hsa-mir-6081]  0.62
51. CCAUUUACUUGAACCUUUAGGAGUGA [hsa-mir-489]  0.625
52. CCCAAGCAGGCUUUGUGUGAGCAGUGAGGCUAUUUAUUCACUUGGGUGCGAGCUCACACGAAGCCUGCUUGGG [hsa-mir-6839]  0.665
53. CCGCCCUCGUGUCUGUGGCGGUGG [hsa-mir-663a]  0.679
54. CCGACUCGGGCUCUGGAGCAGUC [hsa-mir-152]  0.692
55. CCAGUGCUGGGCUCAGACCCUGG [hsa-mir-150]  0.701
56. CCAAGUCUGACCACCUGAGGAAUGCCUGG [hsa-mir-1269a]  0.719
57. CCCAGCCUUGGCGUUCAGGUGCUGAG [hsa-mir-3150b]  0.723
58. CCCAGCUUUGUGACUGUAAGUGUUGGA [hsa-mir-184]  0.734
59. CCACCCACCAGGGAGCUUUCCAUGGGCUGUGGG [hsa-mir-4725]  0.788
60. CCCAAACUUGGAGCACUUGACCUUUGGC [hsa-mir-4687]  0.804
61. CCACAUAGGAGGGACAGCGGCCUUUCCAACAGG [hsa-mir-9500]  0.847
62. CCAUCAAGCCCCACCAGAAGGUGGAGGCCCAGGUGAG [hsa-mir-4721]  0.864
63. CCACUGGGAAUGCUCCCUGAGGACGUUAUAUGAGUG [hsa-mir-4319]  0.872
64. CCACGGGCUGGGCACAGUGG [hsa-mir-3159]  0.891
65. CCAUGGGGGCCUUGCUGUGU [hsa-mir-6808]  1.04
66. CCCAGCCUUCCAGAGUUGGUGCCAGG [hsa-mir-4476]  1.11
67. CCCACUCCAAAGUUCACAGAAUGGGUGG [hsa-mir-541]  1.15
68. CCCGAGGCCCUUCAUGCUGCCCAGCUCGGG [hsa-mir-486-1]  1.19
69. CCCGAGCUGGGCAGCAUGAAGGGCCUCGGG [hsa-mir-486-2]  1.49
70. CCCUCAUAUGGCAGUUGGCGAGGGCCCAGUGAG [hsa-mir-6769a]  1.53
71. CCCGGCCGGCAGCCCCCGGCCUUAAAGCGCGGG [hsa-mir-4741]  2.16
72. CCCUGGGGAGCUGCUGCAGGCAGCAGGUGGGCGGGACGCCAGCAGGCUGUCUAGCUGUUCCCAUGAUGG [hsa-mir-6843]  2.24
73. CCGACUCUGAGUAUGAUAGAAGUC [hsa-mir-148a]  2.33
74. CCCCGCGCGCGGACAGACACACGGACAAGUCCCGCCAGGGG [hsa-mir-4492]  4.65
